Results taken from article PMC6692507.

Experiments:
[1] = molecular target: uL23(71pBpa), in 70S ribosomes, RNCs or living cells (E. coli) (UniProt P0ADZ0); assay: cross-linking; competition: SecA (2.5 uM) premixed with Ffh/SRP (0.5, 2.5, 12.5 uM) in buffer C, 10 min 30°C with 0.5 uM 70S ribosomes bearing pBpa at position 71 or 52 of uL23, UV 20 min on ice; anti-SecA and anti-Ffh blots
[2] = molecular target: uL23(52pBpa), in 70S ribosomes, RNCs or living cells (E. coli) (UniProt P0ADZ0); assay: as above

reduction of the SecA-uL23 cross-linking product with SRP equimolar to SecA [1]: 50% | reduction of the SecA-uL23 cross-linking product with SRP equimolar to SecA [2]: 50%
Substance: Ffh, the protein component of the bacterial signal recognition particle (SRP), purified (from UniProt P0AGD7 1-453) (natural protein)
